Results from article PMC5979038.

Tests used:
FtsZ-YFP-mts (E. coli) [1] = experiment: AUC; sedimentation velocity, 7 μM protein, working buffer, 4 mM GTP and 5 mM Mg2+; monomers to higher-order species
FtsZ-YFP-mts (E. coli) [2] = experiment: single-molecule TIRF residence time; subunits labelled with GFP-Booster Atto647N in filaments on the bilayer, about 0.2 μM protein, with GTP, 5 mM free Mg2+ (high-density mesh)
FtsZ-YFP-mts (E. coli) [3] = experiment: single-molecule TIRF residence time; subunits labelled with GFP-Booster Atto647N in filaments on the bilayer, about 0.2 μM protein, 4 mM GTP, 1 mM free Mg2+ (dynamic rings); double exponential fit with photobleaching term

percent of protein in higher-order species (FtsZ-YFP-mts (E. coli) [1]): 70% | mean residence time of single subunits within the filaments on the membrane (FtsZ-YFP-mts (E. coli) [2]): 15.1 s | mean residence time of single subunits within the filaments on the membrane (FtsZ-YFP-mts (E. coli) [3]): 11.5 s
Substance: FtsZ-YFP-mts
